In paper PMC5095350, “Engineered AAA+ proteases reveal principles of proteolysis at the mitochondrial inner membrane” (Nature Communications, 2016):
One block for each molecule: values may come before it.

Assays:
hexYME1L (human) [1] = molecular target: T1, hexYME1L (human) (UniProt Q96TA2)
T1 sequence: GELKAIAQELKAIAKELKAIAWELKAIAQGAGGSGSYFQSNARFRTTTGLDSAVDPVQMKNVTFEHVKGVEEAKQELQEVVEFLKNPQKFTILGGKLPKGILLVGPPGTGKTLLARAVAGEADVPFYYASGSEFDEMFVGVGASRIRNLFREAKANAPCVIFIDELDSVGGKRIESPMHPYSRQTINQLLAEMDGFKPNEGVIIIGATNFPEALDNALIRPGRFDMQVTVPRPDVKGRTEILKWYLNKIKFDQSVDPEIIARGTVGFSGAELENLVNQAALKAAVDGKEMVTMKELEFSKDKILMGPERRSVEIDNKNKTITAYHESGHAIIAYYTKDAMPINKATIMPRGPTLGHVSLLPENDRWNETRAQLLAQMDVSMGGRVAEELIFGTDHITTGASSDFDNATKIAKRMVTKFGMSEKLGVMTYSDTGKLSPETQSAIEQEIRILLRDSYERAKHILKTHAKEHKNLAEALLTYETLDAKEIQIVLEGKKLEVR

hexYME1L (human) [2] = molecular target: T1, hexYME1L (human); remark: listed apart in the source
[3] = molecular target: the molecule itself; test: SEC; analytical SEC, Superose 6 Increase 10/300 GL; 1 mg of protein in 200 μl; 50 mM Tris-HCl (pH 8.0), 100 mM NaCl, 0.5 mM TCEP; hexYME1L also with 5 mM EDTA or with ATPγS and MgCl2 (no change in migration)
purified protein = substrate: Nc1ncnc2c1ncn2[C@@H]1O[C@H](COP(=O)(O)OP(=O)(O)OP(=O)(O)O)[C@@H](O)[C@H]1O; test: purified protein; settings: Hill form of Michaelis-Menten equation, MgCl2 5 mM, pH 8.0, 37 °C, no protein substrate
hexYME1L (human) [4] = molecular target: T1, hexYME1L (human); remark: listed apart in the source

- stimulation of the ATPase rate of hexYME1L (0.25 μM) by 20 μM substrate (not significant) (hexYME1L (human) [1]): 6%
Molecule: I27 domain of human titin (domain or fragment)

- stimulation of the ATPase rate of hexYME1L (0.25 μM) by 20 μM substrate (not significant) (hexYME1L (human) [1]): 14%
Molecule: carboxymethylated I27 domain of human titin (domain or fragment)

- KM of ATP-dependent degradation by hexYME1L (1 μM), loss of GFP fluorescence, 37 °C (hexYME1L (human) [2]): 12 µM
Molecule: cp7-^SFGFP-ssrA

- KM of ATP-dependent degradation by hexYME1L (1 μM), loss of GFP fluorescence, 37 °C (hexYME1L (human) [2]): 15.2 µM
Molecule: cp7-^SFGFP-sul20C

B1: hexYME1L (enzyme, human)
chain: T1 sequence
notes: cc-hex, de novo designed peptide that forms a hexameric coiled coil; replaces the N-terminal domain and transmembrane span of YME1L; 10-residue linker between cc-hex and YME1L-AP; human YME1L isoform 1, AAA+ ATPase domain and M41 protease domain, residues 317-773; also called hexYME1L-AP; hexameric YME1L; source: E. coli BL21 (DE3), purified (glutathione agarose, TEV cleavage, Ni-NTA, SEC); not …
- stoichiometry N [3]: ~6

B2: hexYME1L (Homo sapiens) (protein)
chain: RFRTTTGLDSAVDPVQMKNVTFEHVKGVEEAKQELQEVVEFLKNPQKFTILGGKLPKGILLVGPPGTGKTLLARAVAGEADVPFYYASGSEFDEMFVGVGASRIRNLFREAKANAPCVIFIDELDSVGGKRIESPMHPYSRQTINQLLAEMDGFKPNEGVIIIGATNFPEALDNALIRPGRFDMQVTVPRPDVKGRTEILKWYLNKIKFDQSVDPEIIARGTVGFSGAELENLVNQAALKAAVDGKEMVTMKELEFSKDKILMGPERRSVEIDNKNKTITAYHESGHAIIAYYTKDAMPINKATIMPRGPTLGHVSLLPENDRWNETRAQLLAQMDVSMGGRVAEELIFGTDHITTGASSDFDNATKIAKRMVTKFGMSEKLGVMTYSDTGKLSPETQSAIEQEIRILLRDSYERAKHILKTHAKEHKNLAEALLTYETLDAKEIQIVLEGKKLEVR
- K0.5 (purified protein): 1.4 mM

- initial rate of ATP-dependent degradation of β-casein (20 μM) by hexYME1L (1 μM), SDS-PAGE (β-casein molecules min^−1 enz6^−1) (hexYME1L (human) [4]): 0.49
B3: β-casein (natural protein)
chain: RELEELNVPGEIVESLSSSEESITRINKKIEKFQSEEQQQTEDELQDKIHPFAQTQSLVYPFPGPIPNSLPQNIPPLTQTPVVVPPFLQPEVMGVSKVKEAMAPKHKEMPFPKYPVEPFTESQSLTLTDVENLHLPLPLLQSWMHQPHQPLPPTVMFPPQSVLSLSQSKVLPVPQKAVPYPQRDMPIQAFLLYQEPVLGPVRGPFPIIV
